Results: publication PMC5087439, “One Step Assembly of Thin Films of Carbon Nanotubes on Screen Printed Interface for Electrochemical Aptasensing of Breast Cancer Biomarker”

Target: MUC1 (mucine) (UniProt P15941 24-1097)
Assay: electrochemical impedance spectroscopy (aptamer immobilized on electrode); 2 mM [Fe(CN)6]4-/3- redox probe; 1 mM Mg2+; observed (apparent) Kd, stated as about 0.1 U/mL; Binding buffer pH 7.4: 1 mM MgCl2, 140 mM NaCl, 2.7 mM KCl, 0.1 mM Na2HPO4, 1.8 mM KH2PO4; 45 min incubation; temperature not stated

Chain of MUC1 (mucine) (P15941 24-1097): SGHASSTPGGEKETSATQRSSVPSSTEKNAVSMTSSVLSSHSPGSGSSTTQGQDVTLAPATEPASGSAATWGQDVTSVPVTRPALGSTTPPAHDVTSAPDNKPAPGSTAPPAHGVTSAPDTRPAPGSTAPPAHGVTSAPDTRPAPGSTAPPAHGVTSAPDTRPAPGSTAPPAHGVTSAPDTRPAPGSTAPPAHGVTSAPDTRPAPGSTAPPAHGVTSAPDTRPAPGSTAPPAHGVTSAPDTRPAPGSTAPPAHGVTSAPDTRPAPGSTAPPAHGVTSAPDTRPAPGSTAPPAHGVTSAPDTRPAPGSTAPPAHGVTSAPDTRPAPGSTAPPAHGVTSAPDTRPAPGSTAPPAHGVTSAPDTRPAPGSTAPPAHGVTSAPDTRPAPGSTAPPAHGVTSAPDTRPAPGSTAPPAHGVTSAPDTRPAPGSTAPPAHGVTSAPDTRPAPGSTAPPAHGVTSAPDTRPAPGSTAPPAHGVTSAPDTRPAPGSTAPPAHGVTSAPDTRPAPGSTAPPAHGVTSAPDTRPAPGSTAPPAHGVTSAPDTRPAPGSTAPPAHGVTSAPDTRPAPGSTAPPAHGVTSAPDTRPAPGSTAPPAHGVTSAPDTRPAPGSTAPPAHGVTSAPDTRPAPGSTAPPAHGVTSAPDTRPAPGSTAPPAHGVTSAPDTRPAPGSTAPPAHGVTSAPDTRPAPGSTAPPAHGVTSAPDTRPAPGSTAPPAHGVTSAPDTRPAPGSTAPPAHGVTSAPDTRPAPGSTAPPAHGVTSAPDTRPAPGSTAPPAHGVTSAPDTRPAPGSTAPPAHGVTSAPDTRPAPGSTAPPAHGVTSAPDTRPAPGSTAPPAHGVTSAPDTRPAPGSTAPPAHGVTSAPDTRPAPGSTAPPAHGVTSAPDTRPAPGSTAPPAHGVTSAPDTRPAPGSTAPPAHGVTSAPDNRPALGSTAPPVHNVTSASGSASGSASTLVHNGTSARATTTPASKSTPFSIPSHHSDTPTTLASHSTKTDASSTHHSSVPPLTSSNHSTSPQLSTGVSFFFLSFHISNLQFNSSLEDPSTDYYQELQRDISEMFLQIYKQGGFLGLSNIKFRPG

Binder: GCAGTTGATCCTTTGGATACCCTGG (ssDNA, 3'-NH2) [MUC1 aptamer]
- Kd: 630 nM
